The source of these data is the supplement of paper PMC10126150.

The data set has as its system ATP. Kind of data set: switch fluorescence ratio, 500 uM ATP over buffer (Cy3 cluster intensity, sum of 5 cycles each) (fold (ratio)); higher = stronger signal-on switching upon ATP binding; sequences stand for … in TCGTCGGCAGCGTCAGATGTGTATAAGAGACAGTTTTTTTTTTTTTTTTTTTTTTTTT…TC. Particulars: aptamer strand: ATP DNA aptamer (quencher-CACCTGGGGGAGTATTGCGGAGGAAGG + anchor), 100 nM annealed; ATP concentration: 500 uM. A digest of the protocol:
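Cy3-labelled switching-strand clusters on a modified Illumina MiSeq flow-cell were annealed to 100 nM quencher-labelled ATP aptamer and imaged first in selection buffer, then after 15 min with 500 uM ATP at 22 °C. NaOH stripping and re-annealing separated each of five buffer/ATP cycles, and clusters outside 100-1000 RFU were excluded. The fluorescence ratio sums target-cycle Cy3 intensity over buffer-cycle Cy3 intensity per cluster and averages it per switch-domain sequence.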

± gives the standard deviation of the averaged measurements.
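Further: ATP exposure 15 min at 22 °C before imaging.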

For the sequence TTTTTATACG, the switch fluorescence ratio turned out to be 0.984 ± 0.072.
With CTATATGAAG, the switch fluorescence ratio is 0.9802 ± 0.0067.
Take TTATTTCGTG: the switch fluorescence ratio turned out to be 0.998 ± 0.03.
As to CCGAGGTTTT, the switch fluorescence ratio was found to be 1.33 ± 0.22.
Take GCCATTGAGG: the switch fluorescence ratio was determined as 0.9668 ± 0.0031.
On to CGAGGTTAAT, for which the switch fluorescence ratio stood at 1.051 ± 0.0011.
In the case of CAACTGGTAT, the switch fluorescence ratio came to 1.17 ± 0.26.
Regarding AGGGGAAAGG, the switch fluorescence ratio was determined as 0.984 ± 0.014.
Regarding TTAACATGTT, the switch fluorescence ratio was found to be 0.996 ± 0.022.
To TCTAGTGGCA belongs 0.98 ± 0.038; to GAAGTAGCCT, 0.9985 ± 0.0086.
For AAATTCATGG, the switch fluorescence ratio came to 0.9809 ± 0.0021.
The figure for TTTTGTGGGC is 1.01 ± 0.055; for GCTATTGGTA it is 1.01 ± 0.03.
In the case of ATTTGTAAAG, the switch fluorescence ratio is 1 ± 0.034.
Consider CACTGCGCGC, for which the switch fluorescence ratio was 1.11 ± 0.017.
Regarding TAGAAATACT, the switch fluorescence ratio came to 1.54 ± 0.2.
To GCCCGATCAC belongs 1.151 ± 0.0086; to AAGGGGTTGG, 1.01 ± 0.019; to ATCTTTATGT, 1.03 ± 0.017.
Take AGCTTGGGAA: the switch fluorescence ratio came out at 0.9627 ± 0.0063.
With GTTTCCTATT, the switch fluorescence ratio came to 0.959 ± 0.013.
Take TGGTGCAGGC: the switch fluorescence ratio stood at 0.702 ± 0.023.
TTTAAAGTGG: the switch fluorescence ratio came to 0.98 ± 0.015.
Regarding CAACCGGCCA, the switch fluorescence ratio was found to be 1.11 ± 0.027.
For the sequence CAAGCAAGAT, the switch fluorescence ratio was found to be 2.58 ± 0.24.
Regarding GGATTTTGTT, the switch fluorescence ratio was 0.998 ± 0.031.
The figure for TTTTTGAAGG is 0.992 ± 0.024; for GCGCTCGAGT it is 1.018 ± 0.0074.
As to TGGAGAGGAT, the switch fluorescence ratio was found to be 0.9825 ± 0.0026.
Turning to AGATCGTGGG, the switch fluorescence ratio was 1.04 ± 0.015.
To CTCATATGCA belongs 1 ± 0.029; to GCATTATAT, 1.03 ± 0.023; to TGTGGCCGTT, 1.03 ± 0.059.
The figure for AGTGGAGACG is 1.03 ± 0.012; for CGGTACCCAT it is 1.01 ± 0.018; for ATGGTAAGT it is 0.9815 ± 0.0057.
For the sequence AATAGGAAGT, the switch fluorescence ratio stood at 1.011 ± 0.007.
Turning to ATAGCCGGGT, the switch fluorescence ratio was found to be 1.04 ± 0.088.
Turning to TCTTGTAACT, the switch fluorescence ratio is 1.01 ± 0.017.
With AGTTGGAGCG, the switch fluorescence ratio worked out at 1.026 ± 0.0041.
For GGATGTGGGA, the switch fluorescence ratio turned out to be 0.981 ± 0.017.
Consider ATGGGGGAA, for which the switch fluorescence ratio worked out at 0.997 ± 0.042.
Take TTTAAGGGAC: the switch fluorescence ratio is 1.05 ± 0.021.
GACAGGGAAC: the switch fluorescence ratio amounted to 1.01 ± 0.021.
Take GTTCTATATT: the switch fluorescence ratio worked out at 0.986 ± 0.062.
Regarding TAGGGCCGTG, the switch fluorescence ratio amounted to 0.977 ± 0.0059.
Consider GAATGGGTAA, for which the switch fluorescence ratio is 1.02 ± 0.033.
As to AGAAGTTGAG, the switch fluorescence ratio turned out to be 0.984 ± 0.01.
Turning to CTAGGGGCGT, the switch fluorescence ratio worked out at 0.979 ± 0.019.
For the sequence GGGAGTCCCA, the switch fluorescence ratio was 0.9973 ± 0.0078.
As to GTCGGGTACA, the switch fluorescence ratio is 1.008 ± 0.0085.
The figure for CATTAAGTGT is 0.9713 ± 0.0034.
To GTGTAAAGTG belongs 0.949 ± 0.047; to GGAGGATGAG, 1.01 ± 0.013.
For GGAGGGTTAT, the switch fluorescence ratio was found to be 0.995 ± 0.038.
The figure for TGGATCATAG is 0.999 ± 0.038; for GGTAAATGTG it is 1.03 ± 0.072; for ATAGACGGTT it is 1.02 ± 0.048.
In the case of TTTGGATGTG, the switch fluorescence ratio was 0.984 ± 0.032.
On to TGCACACGTG, for which the switch fluorescence ratio stood at 0.9787 ± 0.0068.
Consider GCTTCTTTTG, for which the switch fluorescence ratio was 1.09 ± 0.15.
To ACCCTCAAAA belongs 1.31 ± 0.031; to CCAATGGCAG, 1.155 ± 0.0045; to GGTTCTTTTT, 1.02 ± 0.011.
To AACTGTCAGA belongs 0.9903 ± 0.0036; to TCCGGGGTCG, 1.034 ± 0.0062.
